# Results as given in US20220242939A1 (BIOARCTIC, published 2022).
# Changes are numbered by the printed parent chain. Non-standard residues stand in square brackets, D forms with d. No end group written: not given here. Ahx = NCCCCCC(=O)O
# T1: L198 N-terminal neo-epitope peptide LAGQPL-Acp-C (SEQ ID NO:52) conjugated to BSA (human, not fully specified (residue 8); printed as LAGQPL-Acp-C; also: C-terminal Cys conjugated to BSA carrier)
# T1 construct: BSA carrier; also called L198-BSA peptide
# T1 peptide: LAGQPL[Ahx]C
# T2: G200 N-terminal neo-epitope peptide GQPLQE-Acp-C (SEQ ID NO:50) conjugated to BSA (human, not fully specified (residue 8); printed as GQPLQE-Acp-C; also: C-terminal Cys conjugated to BSA carrier)
# T2 construct: also called G200-BSA peptide; G200-peptide
# T2 peptide: GQPLQE[Ahx]C
# B1: 12B1, monoclonal anti-L198 antibody (antibody, IgG2c, V domains shown)
# VH: EVKLEESGGGLVQPGGSMKLSCVASGITFSKYWMNWVRQCPEKGLEWVAQIRLRSDNYATHYAESVKGRFTISRDDSKSSVYLQMNTLRAEDTGIYYCTHHYYGSSGYVDVWGTGTTVTVSS
# VL: DIVMTQSQKFMSTSVGDRVSVTCKASQNVGTNVAWYQQKPGQCPKGMILSASQRYSGVPDRFTGSGFGTEFTLTISNVQSEDLAEYFCQQYNSYPYTFGGGTKLERK
# B2: 15H11, monoclonal anti-L198 antibody (antibody, IgG1, V domains shown)
# VH: B1 VH with S17A, K31N, R54K
# VL: B1 VL with T31N, Q38K, T74I, Q89H
# B3: 4E6, hybridoma monoclonal antibody (unpurified supernatant) (antibody, V domains shown)
# VH: EVQLVESGGDLVKPGGSLKLSCAASGFTFSSYAMSWVRQSPEKRLEWVAEISGSGSRDHYTDSVTGRFTVSRDNAKNTLYLEMSSLRSEDTAIYYCARQLTGTDYYGTDYWGQGTSVTVSS
# VL: DVLMTQIPLSLPVSLGDQASISCRSSQSIVYSNGNTYLEWYLQRPGQSPKLLIYKVSNRFSGVPDRFSGSGSGTDFTLKISRVEAEDLGVYYCFQGSHLPYTFGGGTKLEIK
# B4: 7B10, hybridoma monoclonal antibody (unpurified supernatant) (antibody, mouse IgG1, V domains shown)
# VH: AVQLVESGGGLVKPGRSLKLSCAASGFTFSSYAMSWVRQFPDKRLDWVAEISSGGGSTNYLDTVTGRFTISRDNAKNTLYLEMNSLRSEDTAMYYCARQLVGTDYYGTDYWGQGTSVTVSS
# VL: B3 VL with I7T, S28N, R44K, L99V
# notes: also called 7610
# B5: 7C7, hybridoma monoclonal antibody (unpurified supernatant) (antibody, mouse IgG2b, V domains shown)
# VH: EVQLVESGGGLVKPGGSLRLSCAASGFTFSSFAMSWVRQSPERRLEWVAEISRGGGYAFYSDTVTGRFTISRDNARNTLFLEMGSLRSEDTAMYYCSRQLTGTDYYAMDYWGQGTSVTVSS
# VL: B3 VL with M4L, I7T, P12F, S32T, R44K, H98Q, L99V, I111L
# B6: 17G4, hybridoma monoclonal antibody (unpurified supernatant) (antibody, mouse IgG1, V domains shown)
# VH: EVQLVESGGGLVKPGGSLKLSCSASGFTFSRYAMSWVRQSPEKRLEWVAEINSGGSYSFYSDTVTGRFTISRDNAKNTLFLEMSSLRSEDTAIYYCARQLTGTDYYGTDYWGQGTSVTVSS
# VL: B3 VL with I7T, L15H, I29L, V30L, R44K, L99V
# B7: 23D5, hybridoma monoclonal antibody (unpurified supernatant) (antibody, mouse IgG1, V domains shown)
# VH: B6 VH with T101S
# VL: B3 VL with I7T, L15H, I29L, V30L, R44K, L99V
# B8: 28F2, hybridoma monoclonal antibody (unpurified supernatant) (antibody, mouse IgG1, V domains shown)
# VH: QIQLVQSGPDLKKPGETVKISCKASGYTFTNYAMHWMKQAPGKALKWMGWINTYTGEPTFADDFKGRFAFSLETSASTAYLQINSLKNEDMATYFCAREGYYDRSHYFDYWGQGTTLTVSS
# VL: DVLMTQTPLSLPVSLGDQASISCRSSLSLVHGDGNTYLEWYLQKPGQSPKLLIYKVSNRFSGVPDRFSGSGSGTDFTLKISRVEAEDLGVYYCLQGSHIPFTFGSGTKLEIK
# Target: T3, recombinant C-terminal ApoE fragment L198-HIS (ApoE-L198-H299-10xHIS) (human, UniProt P02649 216-317)
# T3 construct: also called L198-HIS fragment
# Assay: direct ELISA, L198-HIS coated at 0.1 µM
# Experimental: (§1) Selectivity evaluation of purified monoclonal antibodies by direct ELISA: The direct ELISA described below was used to evaluate the binding selectivity of the purified monoclonal antibodies produced in Example 14.
# (§2) The screening was performed according to standard ELISA protocols. Briefly, 1 μg/ml solutions of BSA-conjugated neo-epitope peptides and negative control peptide, and 0.1 μM recombinant C-terminal ApoE fragment and full-length ApoE (Abcam, cat. no. ab50243) were prepared by dilution in PBS. 50 μl/well were added to an ELISA half-area 96 well microtiter plate, and the plate was sealed with adhesive sealer and incubated over night at 4° C. After discarding the solution, the plates were blocked with 150 μl/well of protein-free blocking solution (Pierce) for 1 h at room temperature with shake (600-900 rpm). The plates were washed four times with washing buffer containing 0.28 mM NaH₂PO₄, 2.5 mM Na₂HPO₄, 150 mM NaCl, 0.1% TWEEN®-20 and 0.0075% Kathon CG. Purified monoclonal antibodies of interest were 3-fold serially diluted with a starting dilution at 3 μg/ml (mixed 1:2 with dilution buffer (PBS with 0.1% BSA and 0.05% TWEEN®-20)). An anti-ApoE C-terminal antibody was used as a reference antibody (ApoE E-8 mouse monoclonal, Santa Cruz Biotechnology, cat. no. sc-393302). 50 μl/well were added into the ELISA plates and incubated for 2 h at room temperature with shake (600-900 rpm). The plates were washed four times as described previously. […] After another wash (as described previously), 50 μl/well of K-Blue® aqueous substrate (Neogen) were added, and the reaction was stopped after 5-15 min with 50 μl/well of 0.5 M […]. The optical density at 450 nm was read using an ELISA reader (Tecan).
# T3 sequence (P02649 other isoform, or with tags, fused parts or gaps limits assumed): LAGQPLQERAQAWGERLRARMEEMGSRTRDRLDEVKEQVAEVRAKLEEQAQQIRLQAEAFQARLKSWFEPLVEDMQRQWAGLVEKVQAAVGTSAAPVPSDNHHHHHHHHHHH
row,EC50,Binder
1,8.7 ng/mL,B1
2,3.6 ng/mL,B2

# Target: T1, L198 N-terminal neo-epitope peptide …
# Assay: direct ELISA, L198-BSA peptide coated at 1 µg/ml
# Experimental: as §1, §2
row,EC50,Binder
1,15.2 ng/mL,B1
2,3.2 ng/mL,B2

# Target: T4, full-length ApoE in human brain extract from Alzheimer's disease patients (human, UniProt P02649 19-317)
# T4 construct: mature; Endogenous protein on Western blot or in solution (IP); also called ApoE full-length protein
# Assay: Western blot of AD brain RIPA 2% SDS extract; hybridoma supernatant as primary antibody
# Text: Selectivity evaluation and human target binding in Alzheimer's disease brain extracts by Western blot analysis: The Western blot analysis described below was used to evaluate selective binding of monoclonal antibodies with affinity for the N-terminal neo-epitope of ApoE fragments […], starting at G200, without binding to ApoE full-length protein, in human brain extracts from an Alzheimer's disease patient. Fresh frozen brain tissue from the Alzheimer's disease patient was homogenized in RIPA 2% SDS extraction buffer, followed by centrifugation at 16000×g for 1 h. The subsequent supernatant was subjected to standard protein concentration determination.
# RIPA 2% SDS brain extract containing 80 μg total protein was mixed with 2×Laemmli sample buffer, boiled for 5 min at 95° C. and loaded onto SDS-PAGE gels (Bolt™ 12% Bis-Tris Plus 10 well, Thermo Fisher, cat. no. NW00120BOX). Gels were run for 30-40 min at 180 V, after which proteins were transferred from the gels to nitrocellulose membranes using the Trans-Blot® Turbo™ system (Bio-Rad). Membranes were blocked in Odyssey® blocking buffer for 1 h and incubated over night at room temperature with hybridoma supernatant diluted 1:1 in Odyssey® blocking buffer with 0.1% TWEEN®-20. Membranes were washed and incubated for 1 h at room temperature with the detection antibody anti-mouse-800CW (LI-COR, cat. no. 925-32210) diluted 1:25000 in Odyssey® blocking buffer with 0.1% TWEEN®-20. Membranes were washed and images acquired using Odyssey® FC (LI-COR).
# T4 sequence (P02649 19-317): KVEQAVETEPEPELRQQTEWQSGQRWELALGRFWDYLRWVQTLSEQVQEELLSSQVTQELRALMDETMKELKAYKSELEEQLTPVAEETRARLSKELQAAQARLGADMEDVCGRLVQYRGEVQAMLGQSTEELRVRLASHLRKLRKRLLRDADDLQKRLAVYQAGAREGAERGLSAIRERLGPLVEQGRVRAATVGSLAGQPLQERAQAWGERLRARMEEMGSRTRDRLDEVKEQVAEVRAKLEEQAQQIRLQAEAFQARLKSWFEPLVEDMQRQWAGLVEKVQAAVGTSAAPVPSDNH
row,Binder,binding result
1,B3,no binding (tested: supernatant diluted 1:1 (text))
2,B4,no binding (tested: supernatant diluted 1:1 (text))
3,B5,no binding (tested: supernatant diluted 1:1 (text))
4,B6,no binding (tested: supernatant diluted 1:1 (text))
5,B7,no binding (tested: supernatant diluted 1:1 (text))
6,B8,no binding (tested: supernatant diluted 1:1 (text))

# Target: T2, G200 N-terminal neo-epitope peptide …
# Assay: direct ELISA, target coated at 1 ug/ml, supernatant in 3-fold dilutions from 1000 ng/ml, OD 450 nm
# Experimental: (§3) Selectivity evaluation by direct ELISA: The direct ELISA described below was used to evaluate the binding selectivity of generated monoclonal anti-ApoE antibodies with affinity for the N-terminal neo-epitope of C-terminal ApoE fragments starting at amino acid G200.
# (§4) The screening was performed according to standard ELISA protocols. Briefly, 1 μg/ml solutions of N-terminal neo-epitope peptide (SEQ ID NO:50) conjugated to BSA, the recombinant C-terminal ApoE fragment G200-HIS (SEQ ID NO:48) and recombinant full-length ApoE4 (SEQ ID NO:45; Abcam; cat. no. ab50243) were prepared by dilution in PBS. 50 μl/well were added to an ELISA half-area 96 well microtiter plate. Then, the plate was sealed with adhesive sealer and incubated over night at 4° C. The plates were blocked with 150 μl/well of protein-free blocking solution (Pierce) for 1 h at room temperature with shake (600-900 rpm). The plates were washed four times with washing buffer containing 0.28 mM NaH₂PO₄, 2.5 mM Na₂HPO₄, 150 mM NaCl, 0.1% TWEEN®-20 and 0.0075% Kathon CG. Antibodies of interest were serially diluted 3-fold with a starting dilution at 1 μg/ml (mixed 1:1 with dilution buffer: PBS with 0.1% BSA and 0.05% TWEEN®-20) and incubated for 2 h at room temperature. The plates were washed four times as before. […] After another wash (as above), 50 μl/well of K-Blue® aqueous substrate (Neogen) were added, and the reaction was stopped after 5-15 min with 50 μl/well of 0.5 M […]. The optical density at 450 nm was read using an ELISA reader (Tecan). The optical density was plotted against the antibody concentration to generate concentration-response curves (FIG. 14).
row,EC50 (read off the curve),Binder
1,~10 ng/mL,B3
2,~20 ng/mL,B4

# Target: T5, recombinant full-length ApoE4 (aa 1-299; SEQ ID NO:45; Abcam cat. no. ab50243) (human, UniProt P02649 19-317)
# T5 construct: Bought protein; also called recombinant ApoE4 full-length protein
# Assay: as above
# Experimental: as §3, §4
# T5 sequence (P02649 19-317 C130R limits assumed): as the sequence (P02649 19-317) above, with C112R counted along it
row,binding result,Binder
1,no binding (tested: 1000 ng/ml),B3
2,no binding (tested: 1000 ng/ml),B4
3,no binding (tested: 1000 ng/ml),B5
4,no binding (tested: 1000 ng/ml),B6
5,no binding (tested: 1000 ng/ml),B7
6,no binding (tested: 1000 ng/ml),B8

# Target: T6, recombinant C-terminal ApoE fragment G200-HIS (ApoE-G200-H299-10xHIS) (human, UniProt P02649 218-317)
# T6 construct: also called G200-HIS fragment
# Assay: as above
# Experimental: as §3, §4
# T6 sequence (P02649 other isoform, or with tags, fused parts or gaps limits assumed): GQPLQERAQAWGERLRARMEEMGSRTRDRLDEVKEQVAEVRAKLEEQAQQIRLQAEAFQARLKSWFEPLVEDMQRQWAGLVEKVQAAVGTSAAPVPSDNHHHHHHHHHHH
row,EC50 (read off the curve),Binder
1,~10 ng/mL,B3
2,~8 ng/mL,B4
3,~8 ng/mL,B6
4,~10 ng/mL,B7
5,~5 ng/mL,B8
